Reference: PMC4284802, “The tumour suppressor DLC2 ensures mitotic fidelity by coordinating spindle positioning and cell–cell adhesion” (Nature Communications, 2014)

Molecular target: T1, His-tagged recombinant protein containing the forkhead-associated (FHA) domain of Kif1B (residues 367-999) (human, UniProt O60333-2 367-999)
T1 construct: cloned into pRSET-A; Vector pRSET-A; also called Kif1B FHA domain; His-Kif1B; source: E. coli BL21pLysS, purified
T1 sequence (looked up): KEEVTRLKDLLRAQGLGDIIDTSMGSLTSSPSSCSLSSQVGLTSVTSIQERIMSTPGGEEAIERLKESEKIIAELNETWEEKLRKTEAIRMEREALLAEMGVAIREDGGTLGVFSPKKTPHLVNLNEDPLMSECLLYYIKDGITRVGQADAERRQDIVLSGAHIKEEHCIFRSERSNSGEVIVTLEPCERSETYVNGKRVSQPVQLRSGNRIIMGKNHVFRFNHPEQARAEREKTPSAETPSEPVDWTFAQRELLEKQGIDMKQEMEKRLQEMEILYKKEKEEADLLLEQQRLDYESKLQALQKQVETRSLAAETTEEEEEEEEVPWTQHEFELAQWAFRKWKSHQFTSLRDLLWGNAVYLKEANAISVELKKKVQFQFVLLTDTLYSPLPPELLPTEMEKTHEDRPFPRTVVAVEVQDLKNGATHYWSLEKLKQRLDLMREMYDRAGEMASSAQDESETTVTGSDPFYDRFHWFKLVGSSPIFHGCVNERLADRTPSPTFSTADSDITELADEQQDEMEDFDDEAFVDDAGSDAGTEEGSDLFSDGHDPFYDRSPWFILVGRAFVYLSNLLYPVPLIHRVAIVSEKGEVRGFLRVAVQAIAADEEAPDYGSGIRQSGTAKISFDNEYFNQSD
Assay: pull-down; purified GST-SAM domain on glutathione-agarose beads incubated 2 h with recombinant His-tagged Kif1B fusion proteins; immunoblot with anti-GST and anti-His
Conditions: both partners purified

- binding result: binds
B1: DLC2 SAM domain (residues 1-130) fused to GST (domain or fragment, human, UniProt Q9Y3M8-1 1-130, looked up)
chain: MFSQVPRTPASGCYYLNSMTPEGQEMYLRFDQTTRRSPYRMSRILARHQLVTKIQQEIEAKEACDWLRAAGFPQYAQLYEDSQFPINIVAVKNDHDFLEKDLVEPLCRRLNTLNKCASMKLDVNFQRKKG
notes: cloned into pGEX4T3; Vector pGEX4T3; also called SAM domain construct; GST-fusion protein containing the SAM domain; source: E. coli BL21pLysS, purified (glutathione-agarose)
